Measurements from the Human Domainome abundance scans (Beltran et al. 2025).
± gives the uncertainty stated by the source.

B1: Histone-lysine N-methyltransferase 2A, residues 1148 to 1194; numbered along this chain, Q03164 (parent)
chain: KGRRSRRCGQCPGCQVPEDCGVCTNCLDKPKFGGRNIKKQCCKMRKC

Variants of: B1
Experiment: abundance fitness (aPCA) (normalised: wild type 0, dead -1); higher = more abundant; growth selection in yeast, the domain comes from the species named
Conditions: Homo sapiens

Abundance fitness: each site, then its substitutions
R7: Q -0.188 ± 0.14 | Y -0.214 ± 0.17 | F -0.192 ± 0.15 | C -0.493 ± 0.14 | N -0.041 ± 0.16 | K -0.103 ± 0.12 | G -0.036 ± 0.093 | W -0.204 ± 0.11 | I -0.17 ± 0.16 | V 0.075 ± 0.1 | P 0.294 ± 0.12 | A -0.09 ± 0.12 | T -0.153 ± 0.13 | L -0.092 ± 0.094 | H -0.435 ± 0.36 | D 0.159 ± 0.16 | S 0.019 ± 0.091
V22: C -0.311 ± 0.11 | W -0.246 ± 0.12 | M -0.385 ± 0.11 | Q 0.079 ± 0.15 | F -0.009 ± 0.11 | H -0.046 ± 0.13 | K -0.079 ± 0.14 | D -0.322 ± 0.14 | E -0.158 ± 0.14 | R -0.021 ± 0.083 | Y -0.053 ± 0.1 | S 0.061 ± 0.079 | N -0.28 ± 0.12 | P -0.769 ± 0.12 | G -0.319 ± 0.09 | L -0.166 ± 0.081
S5: N -0.161 ± 0.24 | G -0.169 ± 0.084 | F 0.163 ± 0.15 | K -0.093 ± 0.21 | L -0.132 ± 0.1 | T -0.24 ± 0.17 | H -0.25 ± 0.2 | Y -0.459 ± 0.23 | D -0.037 ± 0.14 | M -0.236 ± 0.17 | P -0.137 ± 0.14 | E -0.091 ± 0.14 | A -0.19 ± 0.11 | C -0.644 ± 0.12 | Q 0.07 ± 0.21 | I -0.604 ± 0.26 | R -0.226 ± 0.098
G21: C -0.805 ± 0.16 | Y -0.769 ± 0.19 | V -0.7 ± 0.1 | M -0.278 ± 0.13 | W -0.88 ± 0.15 | I -0.995 ± 0.24 | R -0.416 ± 0.09 | S -0.542 ± 0.096 | Q -0.918 ± 0.17 | N -0.767 ± 0.27 | F -0.684 ± 0.2 | P -0.857 ± 0.14 | E -0.677 ± 0.16 | T -0.894 ± 0.16 | L -0.626 ± 0.098 | H -0.375 ± 0.19 | D -0.872 ± 0.15
E18: V -0.093 ± 0.091 | L -0.213 ± 0.086 | P -0.495 ± 0.14 | M -0.22 ± 0.14 | R -0.049 ± 0.097 | G -0.469 ± 0.097 | K -0.002 ± 0.14 | W -0.1 ± 0.12 | C -0.485 ± 0.14 | H -0.17 ± 0.15 | A -0.089 ± 0.1 | D -0.182 ± 0.15 | S -0.092 ± 0.09 | T -0.164 ± 0.11 | Y -0.264 ± 0.15 | I -0.364 ± 0.14 | N -0.161 ± 0.17 | Q -0.177 ± 0.12
C23: T -0.641 ± 0.14 | K -1 ± 0.16 | H -1.07 ± 0.26 | A -0.675 ± 0.1 | E -0.543 ± 0.11 | Y -0.987 ± 0.17 | W -1.03 ± 0.16 | N -0.766 ± 0.21 | D -0.516 ± 0.13 | P -0.736 ± 0.16 | I -0.505 ± 0.2 | F -1 ± 0.19 | V -0.814 ± 0.094 | G -0.648 ± 0.088 | R -0.884 ± 0.097 | Q -0.623 ± 0.16
G9: E -0.866 ± 0.14 | A -0.519 ± 0.1 | V -0.726 ± 0.099 | W -0.553 ± 0.13 | P -0.738 ± 0.15 | H -0.39 ± 0.17 | I -0.452 ± 0.13 | D -0.773 ± 0.093 | L -0.562 ± 0.086 | R -0.55 ± 0.097 | Q -0.299 ± 0.13 | M -0.256 ± 0.12 | F -0.469 ± 0.1 | T -0.653 ± 0.13 | C -0.145 ± 0.18 | Y -0.42 ± 0.15
P12: M -0.081 ± 0.14 | H -0.579 ± 0.17 | N -0.465 ± 0.19 | K -0.75 ± 0.16 | E -0.439 ± 0.12 | L -0.106 ± 0.088 | Q 0.016 ± 0.12 | T -0.5 ± 0.14 | Y -0.063 ± 0.2 | W -0.723 ± 0.13 | I -0.31 ± 0.14 | G -0.872 ± 0.096 | R -0.398 ± 0.082 | S -0.676 ± 0.12 | F -0.63 ± 0.16 | C -0.758 ± 0.14 | V -0.712 ± 0.11
R4: P -0.01 ± 0.13 | M 0.141 ± 0.12 | W -0.54 ± 0.17 | Y -0.184 ± 0.17 | T 0.148 ± 0.14 | V 0.103 ± 0.1 | S -0.004 ± 0.1
Q15: N -0.392 ± 0.15 | Y -0.727 ± 0.15 | F -0.54 ± 0.13 | H -0.355 ± 0.18 | V -0.25 ± 0.089 | W -0.468 ± 0.11 | A -0.112 ± 0.089 | P -0.838 ± 0.14 | S -0.313 ± 0.085 | G -0.384 ± 0.088 | R -0.19 ± 0.093 | M 0.058 ± 0.11 | C -0.37 ± 0.11 | T -0.244 ± 0.1 | E -0.103 ± 0.12 | L -0.049 ± 0.081 | D -0.463 ± 0.16 | I -0.185 ± 0.16
Q10: F -0.284 ± 0.17 | N -0.436 ± 0.18 | W -0.381 ± 0.11 | R -0.234 ± 0.088 | M -0.246 ± 0.11 | T -0.23 ± 0.12 | Y -0.69 ± 0.25 | H -0.189 ± 0.17
